Results: the DeepSol protein solubility set

Test: soluble on expression in E. coli; label from the status in PepcDB or PDB records
In the case of “MFGGSAPKPSIFGGTAATTTASSGFSFGNSSTSTANTGGNTNTTGGFSFGSAQPSTGSTGLFGNSTATGSMFGGSSAAAPAPASAGIFGNSGAAAPAPASTSIFGSSANSAAPATVTFGASAPSAGAGMFGANKPAAPTGGLFGSSTSTATTAPTGGLFGSSTAAPSSGLFGSTAAPAAPGGLFGSTSTSTAAPSGGLFGSSAAPTSTAPAPSGGLFGAAPATSNAAPTSGLFGNSAPAATASSGGLFGAAPKPAAPSGGLFGSTAPATTAATTTATSGLFGAPTSAPSSAPATGGLFGASTAPAAATGGLFSIGAASASTPSVGLFGNSSASTTAAAAPATAPAAASTGGLFGATTAAAAAPTSSTTGGLFGSTAAAPAASLPTGGLFGSSTPAKTPAAPTAGLFGASSTTTTSAPATGSLFGTAPATTTATSAAPAASTGGLFGASSTTTPASTAPTGGLFGAATTTAPAAAAPTGGLFGAATTTAPATVGPTGGLFGAATTTTPATAATLGQTPSTVSATPSLPTTTSTTSTLPKPAEATPTLGLGLGLTSTPLAKGTGWTTSGLKGAATTSAGLKIGASGSDTLSEEEIKAGLGGNDTKAFFTALQEVVNSYHSEIAKQERVFHNKMLELNAYDRELITLEPKVLGLYNEMDDLSGSCKKLHFNVASMTSVLNDIEQNVVELENKLSLPEWHTLDYKFPLDSRFASRHDVQRVQIAQMMLNVDSQMKCADFDLDQITKSLNTMQSTVLKTKTETPLEKTELIMKKQLQKLMDLSTQHDATRDKLNKLKDDHNLKTNNSSKA”, the “soluble on expression in E. coli” value was “not soluble”. In the case of “MSLSLSTIICIGMAGSGKTTFMQRLNSHLRAEKTPPYVINLDPAVLRVPYGANIDIRDSIKYKKVMENYQLGPNGAIVTSLNLFSTKIDQVIGLVEQKKDKFQNCIIDTPGQIECFVWSASGAIITESFASSFPTVIAYIVDTPRNSSPTTFMSNMLYACSILYKTKLPMIVVFNKTDVCKADFAKEWMTDFESFQAAIKEDQDLNGDNGLGSGYMSSLVNSMSLMLEEFYSQLDVVGVSSFTGDGFDEFMQCVDKKVDEYDQYYKQEREKALNLKKKKEEMRKQKSLNGLMKDLGLNEKSSAAASDNDSIDAISDLEEDANDGLVDRDEDEGVEREYTFPGEERTKGEVNENSAPDLQRRYQEAMQQVGKTASSETAENIAKYIRNEGHHHHHH”, the “soluble on expression in E. coli” value was “soluble”. With “MDDATNKKRKVFVSTILTFWNTDRRDFPWRHTRDPYVILITEILLRRTTAGHVKKIYDKFFVKYKCFEDILKTPKSEIAKDIKEIGLSNQRAEQLKELARVVINDYGGRVPRNRKAILDLPGVGKYTCAAVMCLAFGKKAAMVDANFVRVINRYFGGSYENLNYNHKALWELAETLVPGGKCRDFNLGLMDFSAIICAPRKPKCEKCGMSKLCSYYEKCST” the “soluble on expression in E. coli” value was “soluble”. In the case of “MDGVVIKNTGSQYLVRCTDGTELYCMAKGNLRLKGIRSTNPVTVGDRVEIVPASQDGQPAYIKRIHPRRNYIIRRASNLSKESHILGANLDAAVLVCTINDPVTTTVFIDRFLATAEAYRVPVILVFNKIDCYTQEDRLQLDRLSAVYTAIGYPCCHVSAITGEGLPDLKSLLDGKLTLLAGHSGVGKSSLINALIPHADLRTGAISQAHHTGMHTTTFSQMIDFPDLSPGSALIDTPGIKGFGTLEMGEYEVSHYFPEIFAASKGCRFGNCTHTHEPGCAVLEALRRGEIAESRYISYLSILEDENAERYRPEY”, the “soluble on expression in E. coli” value was “not soluble”. For “MLKRPIHLSHDFLAEVVDKSSVVVDATMGNGNDTAFLAQLAKKVYAFDVQEQAIRKTSERLAQLGLSNAELILAGHEAVDQYVTEPVRAAIFNLGYLPSADKSIITLPNTTLQALSKLLTLLMVGGRIAIMVYYGHDGGSLEKDALLDFVKQLDQRKVSAMLYQPLNQVNTPPFLIMLEKLADF”, the “soluble on expression in E. coli” value was “not soluble”. For “MSAIPAEESDQLLIRPLGAGQEVGRSCIILEFKGRKIMLDCGIHPGLEGMDALPYIDLIDPAEIDLLLISHFHLDHCGALPWFLQKTSFKGRTFMTHATKAIYRWLLSDYVKVSNISADDMLYTETDLEESMDKIETINFHEVKEVAGIKFWCYHAGHVLGAAMFMIEIAGVKLLYTGDFSRQEDRHLMAAEIPNIKPDILIIESTYGTHIHEKREEREARFCNTVHDIVNRGGRGLIPVFALGRAQELLLILDEYWQNHPELHDIPIYYASSLAKKCMAVYQTYVNAMNDKIRKQININNPFVFKHISNLKSMDHFDDIGPSVVMASPGMMQSGLSRELFESWCTDKRNGVIIAGYCVEGTLAKHIMSEPEEITTMSGQKLPLKMSVDYISFSAHTDYQQTSEFIRALKPPHVILVHGEQNEMARLKAALIREYEDNDEVHIEVHNPRNTEAVTLNFR”, the “soluble on expression in E. coli” value was “soluble”. With “MEEGVNMDIRPTRIELIRTRRRIRLAKKGLDLLKMKRSALIYEFLQISRTIRGMKENLRKEVVEALNIIKVASVLEGSLALERIANMSSDSRINVNSRNVMGVNIPTLEVSYNLSILSDVYRTVSVPVAIDDSIRRFQKLFYDLILIVEKENSLRNLLMEIDRTKRRSNAIENILIPRLEYQAKMIKMTLDERERDTFTTLKTIKKKIEAENDLEHHHHHH” the “soluble on expression in E. coli” value was “not soluble”. For “MTKFILLALVGLAAAIDFDSSSSESCEDGNGHGHGHGNGNGNGNGNGNGNGGRANGGCETGWRHFRRPSGSWCVRVFGGRLNQGAAQSQCQSFGATLSGLRNLEEARTISNLALSVIGRSSGGIWLGARRTTACAKQHKTTSCSTTSSFRWTDSSASGTAGFVWNNVQPDNSDLNSQCAVLHAGSSAATVSNAVWQPAMMDDVTCSFDPAGRDPRSIYGYVCGKKPSRR”, the “soluble on expression in E. coli” value was “not soluble”. In the case of “MHTDTPSLESLLEAARQRYDVVFEPLTVDETPLDVLQIRNMRQHIDALVANRSVRDPLHDLPLWAKIWPASFVLGRFLRKASPEGRTLLEVGAGCGVTGLIASRYGFAHVTVSDINEDALLFARANVLKNGLEDRVSVRRVDVASTRLDEKFDVIAASEVLYLEELHRPLIKFLLRHLARREDAVAMLCTDTRRKMGRFFKQAERDFRIEEQLVGIRTTGDDGEEERRVFTIHRLHHKHPLEHHHHHH”, the “soluble on expression in E. coli” value was “not soluble”. For “SHMEIVPDTSVVIDGRVSDQVKADADPDTDVDGMGFAGATVVVPEAVVGELEAQANDGRETGWEGLEELQTLVDLAEEGTIDVEYVGRRPDAIEKREAGEGQIDALIRDIAGDRDATLVTSDDVQAEVARAKGLAVEFVDPVKRTVDRLQIENFFDEG”, the “soluble on expression in E. coli” value was “not soluble”. With “MGHHHHHHSHMSYKPNLAAHMPAAALNAAGSVHSPSTSMATSSQYRQLLSDYGPPSLGYTQGTGNSQVPQSKYAELLAIIEELGKEIRPTYAGSKSAMERLKRGIIHARGLVRECLAETERNARS” the “soluble on expression in E. coli” value was “soluble”. With “MSIATQEFDAIVIGAGGAGLRASFQLSQSGFKTAVVSKVFPTRSHTVAAQGGIAAALGNIEFDDGLPSDDWKWHMYDTVKGSDYIGDQDAIEYMCEHAPQSIIELEHMGMPFSRLKNGKIYQRAFGGMSRNYDPANQAERTCAAADRTGHALLHTLYQGNLAHKTDFYTEWFAVDLVKADDGSIAGVIALCIETGETVFLKAKITILATGGAGRIYESSTNAYINTGDGMGLALRAGLPLQDMEFWQFHPTGIAGAGVLVTEGCRGEGGVLRNKDGERFMERYAPNAKDLACRDVVSRASQQEIMEGRGDTFSGTSCVWLDLTHLGEDVINERLPTVRELGRTFAGIDPVEKPIPVVPTCHYQMGGIPTNKHGQVITQVDGKDKVIGGLYAVGECASVSVHGANRLGSNSLLDLVVFGRAAGMHAEQSLKEGMPMKEVSQENIEKATARITKWDTSEQRGCKEKISELRKELQRVMQQYFSVFRQESTMKEGLDKLFNIRERLDNAVLEDNSRIFNMMRIEALELDNLVLTAIATAKLALERKESRGAHSRVDYPERDDKNWMKHTLYFLEGDRTSLRDVNMSPTKVKAFQPAERKY” the “soluble on expression in E. coli” value was “not soluble”. With “MAKITVGTENQAPIEIYYEDHGTGKPVVLIHGWPLSGRSWEYQVPALVEAGYRVITYDRRGFGKSSQPWEGYEYDTFTSDLHQLLEQLELQNVTLVGFSMGGGEVARYISTYGTDRIEKVVFAGAVPPYLYKSEDHPEGALDDATIETFKSGVINDRLAFLDEFTKGFFAAGDRTDLVSESFRLYNWDIAAGASPKGTLDCITAFSKTDFRKDLEKFNIPTLIIHGDSDATVPFEYSGKLTHEAIPNSKVALIKGGPHGLNATHAKEFNEALLLFLKD” the “soluble on expression in E. coli” value was “not soluble”. For “MGSDKIHHHHHHMKGMEEVVIDAKDMHYRELNEKIHEILRENPDIKKIVLKNVLGQRFIADGIQKKDLTIEIYGIPGGDLGMFMSGPTIIVHGNAEFAPGNTMDDGTIVIYGSSGDVTAHSMRGGKVFVRGDVGYRSGIHMKAYKDKVPVLVIGGRAKDFLGEYMAGGIIIVLNIDEKGNDLGKVKGRMIGTGIHGGAIYIRGEIDKDQLGVAADIKEFTEEDLEKIKPYIEEFCKWFNLPEDVKNKLLNSKWTKIAPISKRPFGKLYTPDLM”, the “soluble on expression in E. coli” value was “not soluble”. For “MSGVRMIDRWEEDNKMFLRLYIKERVLPTIYGSILGDLVGVPVEFKKRGSFFVEDIIGYGTYNQPAGTWSDDTSLTLCLIENIVEEGTIKSLMEKFVNYQDKGYMTPYGQMFDIGGATAQAIGRFKAGCLPQNCGGQSEYDNGNGAIMRISPLAFLFDNEFDFVKKAEVIKQYTEITHAHPRAIVGSIIYIELLLRLYHNNTLEKSIKDILDLFEENFPKNHIYMDEFKYYKRIFDSNFFNVPEEQILSDGYVVHTLEAAIWCVGNTKNFKEAILKAVNLGGDTDTVGVITGAIAGMYYKMDEIPQDWLNKIAKKQDIDELINKFYKYCADKAVIEKYGSL”, the “soluble on expression in E. coli” value was “not soluble”. In the case of “MVAGLTNGELIAPMTYEETMTSDFFEAWFQKFLLPTLTTPSVIIMDNARFHRMGKLELLCEEFGYKLLPLPPYSPEYNPIEKTWAHIKKHLKKVLPSCNTFYEALLSCSCFNLEHHHHHH”, the “soluble on expression in E. coli” value was “not soluble”. For “SLIKEQASKLIKEIVNQISSLASISNFVLLFPRLDFKGLGYIPQLFFIFVKHDLIEENLSSVSSARAVIDFTNTKSEYVNFNITPRPEIVTINKGILSSIYDQTLIRALRETPFMNSALEFNSNFIKMQFRQRFNLGVYYSMYSPSVGFHEVVSISSLKLKDTVYLEEVEISLQVKICKTFNILTYKG”, the “soluble on expression in E. coli” value was “soluble”. With “MFPMNYSLIDLSAIECPESDLFIEGVVLAANLATRPLDPEQWLPELFTEQHQALLQPVTEQIHRQYQLLKGNGYDLLALLAEHAPSRKQGLADFAEGFMQLWPQVEPMWQQGAFADGSIRMLQALLTTLMLAIDEAQTQAQMREAGYEQVPALADLIEQLNLMVHEVALAADEAMLGAKAQSVNPFKGIGRNDACPCDSGKKFKQCCGQ” the “soluble on expression in E. coli” value was “not soluble”. For “MPLSPILRQILQQLAAQLQFRPDMDVKTVREQFEKSSLILVKMANEPIHRVEDITIPGRGGPIRARVYRPRDGERLPAVVYYHGGGFVLGSVETHDHVCRRLANLSGAVVVSVDYRLAPEHKFPAAVEDAYDAAKWVADNYDKLGVDNGKIAVAGDSAGGNLAAVTAIMARDRGESFVKYQVLIYPAVNLTGSPTVSRVEYSGPEYVILTADLMAWFGRQYFSKPQDALSPYASPIFADLSNLPPALVITAEYDPLRDEGELYAHLLKTRGVRAVAVRYNGVIHGFVNFYPILEEGREAVSQIAASIKSMAVA”, the “soluble on expression in E. coli” value was “soluble”. In the case of “MGSDKIHHHHHHMDNYEGSDPWNTSSNAWTKDDDHVVSTTNSEPSLNGISGEFNTLNFSTPLDTNEEDTGFLPTNDVLEESIWDDSRNPLGATGMSQTPNIAANETVIDKNDARDQNIEESEADLLDWTNNVRKTYRPLDADIIIIEEIPEREGLLFKHANYLVKHLIALPSTSPSEERTVVRRYSDFLWLREILLKRYPFRMIPELPPKRIGSQNADQLFLKKRRIGLSRFINLVMKHPKLSNDDLVLTFLTVRTDLTSWRKQATYDTSNEFADKKISQEFMKMWKKEFAEQWNQAASCIDTSMELWYRITLLLERHEKRIMQMVHERNFFETLVDNFSEVTPKLYPVQQNDTILDINNNLSIIKKHLETTSSICKQETEEISGTLSPKFKIFTDILLSLRSLFERYKIMAANNVVELQRHVELNKEKLESMKGKPDVSGAEYDRIKKIIQKDRRSIIEQSNRAWLIRQCILEEFTIFQETQFLITRAFQDWAKLNSNHAGLKLNEWEKLVTSIMDMPISRE”, the “soluble on expression in E. coli” value was “not soluble”.
